Tests used:
[1] = target: parathyroid hormone receptor 1 BRET-biosensor PTHR1_(Nluc/Halo618) (UniProt Q03431)
PTHR1 wild-type receptor = PTHR1 wild-type receptor (UniProt Q03431)
[2] = target: parathyroid hormone receptor 1 BRET-biosensor PTHR1_(Nluc/Halo618) (UniProt Q03431); remark: listed apart in the source

- change in intramolecular BRET of the PTHR1 (Nluc/Halo618) sensor in intact cells, 96-well plate, 37 °C, saturating ligand (Fig. 3d); serial dilutions for a concentration-response curve (Fig. 3e) [1]: 10%
- Supplementary Figure 6f: pEC50 of PTH(1-34), PTHR1 mediated cAMP response (FRET-based H187-EPAC cAMP sensor co-transfected with the wild-type receptor) (pEC50 (-log M)) (PTHR1 wild-type receptor): 9.52
- Supplementary Figure 6f: pEC50 of PTH(1-34), PTHR1 mediated cAMP response (FRET-based H187-EPAC cAMP sensor co-transfected with the biosensor PTHR1Nluc/Halo) (pEC50 (-log M)) [2]: 7.57
Substance: PTH(1-34) (peptide)

Source: publication PMC6123785
